Assay results reported in patent US20030013150.

B1: recombinant-K2S (r-K2S) expressed in non-gpIII fusion form in E. coli XM[K2S] (protein)
chain: SEGNSDCYFGNGSAYRGTHSLTESGASCLPWNSMILIGKVYTAQNPSAQALGLGKHNYCRNPDGDAKPWCHVLKNRRLTWEYCDVPSCSTCGLRQYSQPQFRIKGGLFADIASHPWQAAIFAKHRRSPGERFLCGGILISSCWILSAAHCFQERFPPHHLTVILGRTYRVVPGEEEQKFEVEKYIVHKEFDDDTYDNDIALLQLKSDSSRCAQESSVVRTVCLPPADLQLPDWTECELSGYGKHEALSPFYSERLKEAHVRLYPSSRCTSQHLLNRTVTDNMLCAGDTRSGGPQANLHDACQGDSGGPLVCLNDGRMTLVGIISWGLGCGQKDVPGVYTKVTNYLDWIRDNMRP
B2: standard melanoma tPA 86/670 (protein)
chain: SYQVICRDEKTQMIYQQHQSWLRPVLRSNRVEYCWCNSGRAQCHSVPVKSCSEPRCFNGGTCQQALYFSDFVCQCPEGFAGKCCEIDTRATCYEDQGISYRGTWSTAESGAECTNWNSSALAQKPYSGRRPDAIRLGLGNHNYCRNPDRDSKPWCYVFKAGKYSSEFCSTPACSEGNSDCYFGNGSAYRGTHSLTESGASCLPWNSMILIGKVYTAQNPSAQALGLGKHNYCRNPDGDAKPWCHVLKNRRLTWEYCDVPSCSTCGLRQYSQPQFRIKGGLFADIASHPWQAAIFAKHRRSPGERFLCGGILISSCWILSAAHCFQERFPPHHLTVILGRTYRVVPGEEEQKFEVEKYIVHKEFDDDTYDNDIALLQLKSDSSRCAQESSVVRTVCLPPADLQLPDWTECELSGYGKHEALSPFYSERLKEAHVRLYPSSRCTSQHLLNRTVTDNMLCAGDTRSGGPQANLHDACQGDSGGPLVCLNDGRMTLVGIISWGLGCGQKDVPGVYTKVTNYLDWIRDNMRP

Biological target: plasminogen
Sequence (P00747 20-810): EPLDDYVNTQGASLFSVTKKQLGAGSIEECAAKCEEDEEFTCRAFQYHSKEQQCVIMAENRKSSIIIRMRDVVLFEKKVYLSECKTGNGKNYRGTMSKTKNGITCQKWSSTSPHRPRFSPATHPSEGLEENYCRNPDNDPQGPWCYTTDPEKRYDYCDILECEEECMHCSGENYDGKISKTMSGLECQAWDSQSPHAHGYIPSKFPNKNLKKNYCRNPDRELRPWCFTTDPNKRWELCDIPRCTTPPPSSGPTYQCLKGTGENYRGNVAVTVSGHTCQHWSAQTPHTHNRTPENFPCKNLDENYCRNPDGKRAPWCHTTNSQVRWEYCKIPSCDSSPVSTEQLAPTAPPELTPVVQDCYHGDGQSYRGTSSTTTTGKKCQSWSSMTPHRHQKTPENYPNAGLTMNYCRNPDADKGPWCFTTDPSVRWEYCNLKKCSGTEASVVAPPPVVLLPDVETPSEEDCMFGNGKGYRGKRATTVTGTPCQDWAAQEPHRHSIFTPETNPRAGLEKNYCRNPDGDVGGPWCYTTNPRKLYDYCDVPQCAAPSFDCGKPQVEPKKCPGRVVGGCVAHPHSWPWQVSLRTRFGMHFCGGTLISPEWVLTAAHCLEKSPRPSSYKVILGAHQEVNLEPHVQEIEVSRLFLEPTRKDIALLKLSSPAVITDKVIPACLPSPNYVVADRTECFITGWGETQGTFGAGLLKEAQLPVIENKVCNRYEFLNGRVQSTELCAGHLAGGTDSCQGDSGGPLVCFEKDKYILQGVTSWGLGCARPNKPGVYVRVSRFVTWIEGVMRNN

Protein | copolymerized plasminogen polyacrylamide gel electrophoresis (clearing zones) | fibrinogen-dependent enzymatic activity (amidolytic assay, plasminogen and S-2251) | fibrinogen-dependent enzymatic activity of the periplasmic r-K2S preparation (amidolytic assay, plasminogen and S-2251)
B1 | Transparent areas of serine protease digested plasminogen were observed only in the ammonium sulfate precipitated culture supernatants of E. coli XM[K2S] at 34 and 37 kDa postions | The culture supernatant r-K2S gave the fibrinogen-dependent enzymatic activity of 7 IU/ml | notably low enzymatic activity, which was below the sensitivity of the test (0.25 IU/ml)
B2 | The positive control lane of standard melanoma tPA also demonstrated enzymatic activity at 66 and 72 kDa positions |  | 
